Assays:
[1] = tested on: ES cell line that constitutively over-expressed the transcription factor MyoD; assay: Skeletal muscle differentiation efficiency of MyoD ES cells, myosin heavy chain (MHC) immunostaining; format: cell-based, mouse
From the text: FIG. 2A depicts a differentiation time course of ES cells to skeletal muscle when exposed to low serum vs high serum conditions. […] LIF was removed at Day 0. Low serum was then initiated at different starting times beginning with Day 0. Cells were then fixed and immunostained for myosin heavy chain (MHC) expression. Differentiating cells in high serum were continuously split to prevent overgrowth. FIG. 2B depicts a comparison of differentiation efficiency generated by two types of defined media (N2B27) and 20% KOSR, low serum media (2% horse serum+insulin), and high serum media (15% FBS). Cells were removed from standard ES media (LIF and serum) and incubated in the specified media starting from Day 0 to Day 4. Continuation of LIF (1000 U/ml) or addition of Bmp4 (10 ng/ml) results in a strong block to muscle differentiation.
To probe the effect of the cell cycle on differentiation an ES cell line was used that constitutively over-expressed the transcription factor MyoD driven off an EF1alpha promoter (5) activated by tamoxifen-induced Cre recombination. […]
However any implication of growth factor effects through the manipulation of serum can be fraught with the inconsistencies and complexities of serum. […] Use of both media in ES cells led to activation of MyoD and terminal myogenesis similar to the 2% low serum media, with some improvement (FIG. 2B; assessed on Day 4). […]

[2] = tested on: Hnf4α-overexpressing ES cells; assay: Hepatoblast-like differentiation of Hnf4α-overexpressing ES cells, alphafetoprotein (AFP) expression; format: cell-based; conditions: added to growth factor-free media; day 4
From the text: FIGS. 13A-13B depict hepatoblast-like cells. […] Alpha-fetoprotein mRNA expression after 4 days in media of different growth factor content. FIG. 13B depicts a time course of gene expression for hepatic lineage factors and hepatocyte markers in growth factor-free (N2B27) media.
One essential lineage specifying factor for hepatocytes is hepatic nuclear factor 4α (Hnf4α)(6). Switching of Hnf4α-overexpressing ES cells to growth factor-free or growth factor-reduced media led to the activation of a subset of hepatic genes. At day 0, LIF and doxycycline were removed and the media was either switched or kept to 15% FBS. By day 4, there were high levels of alphafetoprotein (AFP) that could be detected in the cells differentiated in the growth factor-free or growth factor-reduced media and less than 10% the level of AFP in cells in 15% FBS (FIG. 13A and FIG. 16). AFP expression could be confirmed by immunostaining. While this activation by growth factor withdrawal was similar to the pattern seen in previous cell types, there was an additional interesting point of variation compared to other lineages examined so far. […] Albumin production was also detected, as was Sox17, Pparα, Cdh3, Tbx3, Krt18, Hhex, Lrh1, C/EBPα, Hnf1a, and Hnf1b. […]
(§1) RNA isolation and qPCR. […] Quantitative PCR was performed using Bio-rad's SYBR™ green Supermix. […]

[3] = tested on: iNIL ES cells (Ngn2, Isl1, Lhx3); assay: Spinal motor neuron differentiation of iNIL ES cells, beta-3 tubulin (Tubb3) expression; format: cell-based, mouse; conditions: added back into growth factor-free media
From the text: FIGS. 11A-11B depict spinal motor neurons. […] FIG. 11B depicts a time course of gene expression for neuronal lineage factors and motor neuron terminal differentiation markers in growth factor-free (N2B27) media.
To generate spinal motor neurons, a mouse ES cell line that overexpressed a combination of three transcription factor lineage specifiers (Ngn2, Isl1, Lhx3) was used. This combination was previously shown to specify spinal motor neuron identity (4). These iNIL cells, as they are also called, upon doxycycline stimulation express the three transcription factors from a single open reading frame coupled by 2A peptides. Growth factor withdrawal was used as the method of cell cycle manipulation in the experiments described in this Example.
As expected from the results on skeletal muscle myotubes, neurons rapidly formed from ES cells upon switching to different types of growth factor-free media. […] Tubb3 expression was confirmed by immunostaining. When either of the ES cell growth factors LIF or Bmp4 were added back into growth factor-free media, there was a strong block on neuronal differentiation.
ESC differentiation. Twenty-four hours before starting, ESCs are trypsinized and spread out as monolayer onto gelatin in standard ES media. […]
as §1

B1: Bmp4: ES cell growth factor, promotes Id protein family expression (protein, UniProt P21275 293-408, looked up)
Bone morphogenetic protein 4: SPKHHPQRSRKKNKNCRRHSLYVDFSDVGWNDWIVAPPGYQAFYCHGDCPFPLADHLNSTNHAIVQTLVNSVNSSIPKACCVPTELSAISMLYLDEYDKVVLKNYQEMVVEGCGCR
[1]; LIF 1000 U/ml or Bmp4 10 ng/ml added back to N2B27, Day 4
  MHC+ nuclei (differentiation) when added back to N2B27: 0%
[1]; continuation of LIF (1000 U/ml) or addition of Bmp4 (10 ng/ml), Day 0 to Day 4
  muscle differentiation: strong block
[2]
  AFP expression: did not reduce
[3]
  neuronal differentiation: strong block
